Reference: the supplement of paper PMC11502859

System: HEK293T
Assay: median enrichment of reporter reads in eGFP-reduced (low/intermediate) vs eGFP-high sorted cells (eGFP-extension fusion abundance) (ratio); higher = stronger loss of eGFP-fusion protein abundance (more destabilising extension)
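Note: lentiviral eGFP-IRES-mCherry reporter pool sorted by FACS 96 h post-transduction, gated on mCherry-high cells, Illumina read counts normalized per million, median across four biological replicates.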

Substance | median enrichment
SEERMYVCFTHRHQESSPMRFFFGGGRVYTAREQKYCVS [B4GALT5] | 9.99
SEITDTFFGIHILGLGGVAHACNPSPLGG [CTSL] | 13.3
SEMMSCPGPMATRTLQATLLCDQARIPGAGLRGLNGPSGTQVGLSTLSPTTQPTALK [TMEM54] | 0.763
SEMPAALPCQR [CUEDC1] | 1.21
SEPQLTKSACPRTAPALELGARAAELVFGPQRRIQNQKLKSDVRWAPAPSAESRQGEAGWSQAPSHAAPKSWTHLWGAPHLHL [MYO9B] | 7.17
SEPSHSLSPLPCLPHLPPTTRA [RAB3A] | 0.136
SERQEVEWRR [STAMBPL1] | 0.37
SESTGSSQTYRCPAR [FAM221B] | 0.476
SETAGFLLLFFLVVQLSPPPLLSCLLIWSFSLFSACHVFSGTYLHPPQHQFP [CNTNAP5] | 11.4
SETEASLFHSPS [EPB41L4B] | 0.374
SEVIFL [CES5A] | 1.39
SEVLLETKSPSPIAEGGGDPLL [ARID3C] | 0.257
SEVPDMGPICSSSQLLSLTSHHGGSSHLLWICSL [CIAPIN1] | 4.18
SEVRACAMCETGKLGAQFEFFLFFFFLSTKNTLMVNTGQNQERMCSFQGLGQNL [GAB3] | 7.14
SEVRPGPGQGLGPAPCPICSGPQAPPFEEVG [GUCY2D] | 1.47
SFAFIF [CHST9] | 8.28
SFFFPSAS [KAT2B] | 2.2
SFFSLSRFLAALVLL [LONRF2] | 8.16
SFHLLKPAYFRTLRLTVFSLLMMSSC [PIK3AP1] | 11.1
SFLFYSH [DNAJB9] | 9.2
SFQNWMDFYFFQ [CCDC169] | 19.6
SFTHHMDSIYKSQ [EDNRB] | 1.08
SGAENGSCRKIRLRRLPAFCHPSHSQTPDHLKLLTLWFQIFFNLLLLLSLSNLGTFKNREMSECG [STAT3] | 6.44
SGAGPGPRGGTSINSVAKLE [MYL7] | 0.743
SGAKQRHQLLHQKS [SGMS2] | 0.386

Substance | median enrichment
SGARLWDRPGPASGGDPGSGLGSPDLEACPSRASQD [CEBPA] | 0.648
SGASQRSAHADNKVALSLE [FIBP] | 0.209
SGCHGRLSPSIL [KRTAP6-1] | 0.506
SGEMCVTINSKMGKPPSPCI [AK3] | 0.494
SGFLKLSSKLLRLFK [FABP12] | 7.41
SGGLPRRAKMAEMILKITEEREDQPEFPLDICVFLFFYFVLFFLLLLLP [SOX9] | 4.3
SGGV [DHRS2] | 0.226
SGGVGPGRAGVCWHRQPPLWALGGPLKGSPTRGPDESFLSGVGSQRGSPPAAWGRAWPGRVIQRVCQPLTGSPSVAATRSTEL [FAM53B] | 5.41
SGIRLPGNSGTVALADHLQHPAS [SLC2A10] | 0.633
SGKWCFPQEDYWNWMTSE [ACBD5] | 2
SGLDSTRALENEMTV [APCS] | 0.582
SGLELYPGPNSRTTRGLQTFLGGQAGQMAPPLGNAPSCAVERS [ELF3] | 2.16
SGLLALTLQPTLAVWPSPGSFPAPLPLFPVLLNSPSWRVQALGMGGTRPHSFHRALRPDTADQPHSAQEAASGVGAQRGTAAS [BAP1] | 1.74
SGLLLY [MRPL20] | 1.83
SGLLPLGPLTLSGWWTTKYNPVYNLKIYFTFVLLYLFIKG [SMAD4] | 7.74
SGLPLPSLLEIVNPAVCAGLIVSVL [FBXO25] | 6.93
SGLQGRQLSFV [SYT17] | 0.686
SGLSDCPCPAHHPVTATPKPTPTGAHCPTPAPGRHPAGHFTCCH [FERMT3] | 1.55
SGLVCRTAAGAPPGQIIAASDCGLYLFIPSDFFNVRYL [FBLN1] | 30.5
SGLWPGTRSHLAGRWLLPQFSLENPQLSTHPLPQNQFQ [RBM42] | 9.36
SGNRDAFPCSSLQPPLPYKIWSNS [ADH1B] | 2.16
SGPGIHVGGRGRGGRREGRGEIHTVDTLTSWPKSLPQDLPDLHGQASYGGVSISFFLFLFPGLRASWGPRFTNSPTPLKLWRR [AQP1] | 5.75
SGPPFGHHQVPKVPQEASTLHARPASISLSFPVWPSFEGHVRWRSQARQTLTRGLSSKRALGWTTENISSRGSYNKNTYLPAL [PLPP7] | 3.53
SGPPPAILSS [CYP4A22] | 0.549
SGQGPRTQCLARPLPLAFEAKASSR [AGT] | 0.949

Substance | median enrichment
SGQGQPRD [SLC5A5] | 0.35
SGSCCVPTETTIWGLLGNAVNAEGSDVWVL [PATZ1] | 10.9
SGSIFLIDEKNNSVMAIYPC [NDUFA1] | 9.19
SGSRRSRRDPHGSIALASDLAWRYFCRELGSRNASDLSALHIVGLKSGWELAKSLFRLFN [MRPL34] | 8.92
SGSVTRCSLIPADLTGPLANPTSNQKCSSVESETGKWLLQDYSLLQKRNQIHEWKSLCKFNFITHNMYYFF [PUM1] | 8.89
SGTAVPACSPHLGRGSLAAFSLRSRST [AGAP1] | 8.94
SGTRKEID [PCDHB16] | 0.57
SGTVGCVGVGIPLAPASPTLALQLGPRGISVLLSQGRSPAGDGGRGSSILPRVCLGVCEQVCKTPEAEAILPPRSLEGVCAWA [ZSWIM4] | 5.27
SGTWCATGCKLQGIFIGCSCIVLHSSAIYF [PSEN2] | 7.44
SGV [PTCHD4] | 0.462
SGVLSSHFCVTCHFLPLVPCRFGMKMVSFAVFNLFFIMVEYSSRSFVLVYEENLHIFFVFQ [CHIC1] | 9.4
SGWGWTNNQARAEGFMERPLGDPR [S1PR2] | 0.739
SGWLSLPFSPSLSALGSVSTAGPKVKVLPLPEASWQGLSWLEVASLVPVLTPRPQRSCLPCCLSPPLCLCLRCVSHSEPPCFC [CCDC97] | 5.33
SGWLSTCSSWMASGPKLQSLNDQEQHEGLGTYPCKEFLDG [SQOR] | 1.57
SHFKLTL [PTGIR] | 1.1
SHGGVRSCPCSESTFPAIPGAGGACASAIPCDQAPRGRDQRGRKHCACAELSASARRASLPNQPWVPGSRLEPAINSLFLAPG [TSSK6] | 4.1
SHH [SPRY2] | 0.73
SHHQELTHT [NUP88] | 0.49
SHVGQIKRQLQK [CTSO] | 0.527
SHVRNLSIK [AGTR1] | 0.587
SIFFYQEG [PTEN] | 2.76
SIILSPFGSCVERECEIYIISFWERLVLDAP [HSP90B1] | 10.5
SILFHLILALHLLYISPE [CLRN3] | 9.21
SIPHPGSSAPRAGGHLRSVISL [IP6K2] | 0.975
SISL [NPAS4] | 0.469

Substance | median enrichment
SISPSC [OR5AK2] | 0.461
SITLILWKSEQAVAVFHSSSCCVQLLPSQPFNKIILKCYPSALPFNGKMKGSDNTGGPNFVPVLCVPYLSVPVYRLCKSLV [RABL3] | 6.24
SIVLSTNLKSKGSSQSQPLCP [HIST1H3E] | 3.49
SKACILFEDIYKAI [KRT34] | 2.29
SKCVLRASLFFTAAATFPHCLRCREGQVPASTGISDKPRAQPTRGSSLHAHTGYGDGGLQVSSARGLSLWHPHSCPAREALVV [SSNA1] | 5.95
SKERHTSEQRSYMCTK [DEFB114] | 0.227
SKGQLPGKTRF [PHLDA1] | 1.67
SKHLKC [FAN1] | 0.578
SKILVLLNYLI [TIPARP] | 5.53
SKNQRGSEKPRET [CDKN2A] | 0.493
SKQKHQHTSLDNSIWSTRLSYRFNFFCILRTL [HNRNPH3] | 6.48
SKQVTDLF [FOXN3] | 0.53
SKRGHMESGGHLDD [PTGR1] | 0.345
SKRPGRKPPPLKVVFVTVLWSIVLKMGNYILLCQGQQTPAVKGIPSARRLFGACMFIAPARPDRGLLHKPCLVHFFTCKGTEC [AHNAK] | 7.93
SKTNTFYLWEAVPRFQPEL [ZBTB21] | 11.3
SKTWPENPQVLQRKTELGKGESWKDGAD [ABHD15] | 0.348
SKWADE [PLPP5] | 0.25
SLCC [POLQ] | 0.62
SLCFV [E2F3] | 2.42
SLEWTTAKLAPSSDRKPPCVGDCRHAK [TM9SF4] | 1.73
SLFSLTYRMLV [ZNF639] | 6.9
SLIRLAT [AK6] | 9.3
SLKPITVLTAQWN [KCNA2] | 10.7
SLLLVPK [RBKS] | 1.87
SLREAC [ZNF672] | 0.708

Substance | median enrichment
SLRLQRLLCIAFLLQCKERDQGSQEMFAQNGR [GDNF] | 8.43
SLRSLRAGPSAAGSCLNTSLDMARTHRDTGQDQPCLWRQDTTIWPMAVTSCRVQSQTGNHHLRQDLPASFTFLISRALPPILC [SLC22A13] | 8.01
SLTVFHKEDV [ATP2A2] | 0.983
SLYGAICPPSPSRTLEGTSAPAGLGPPLSLLQASWCLHTSGSWPRKSQQEQGMGEGRCHTTWR [CISH] | 4.49
SLYKKVGTMAAG [Degron KLHDC3] | 7.34
SLYQKPEVE [UGT2B17] | 0.724
SLYRLRR [ST3GAL6] | 3.73
SMALVALEWDPALTSPRANLGGAEGALGHRKQGKKGRSCGEMTLIFDCYPNLDL [NDRG2] | 7.41
SMFESHASLWKQYAM [STAT5A] | 0.883
SMKCLS [FANCI] | 0.846
SML [CTHRC1] | 3.13
SMLIP [ZMYND15] | 0.546
SMLLPGLQKLHGHSSVIGLSLITKITAQDHLPEKHPLA [PLCB1] | 19.1
SMSSDWRIRKIYGPTFDAIF [ZCCHC4] | 8.58
SNGSI [PHF20L1] | 0.369
SNIRFVIRNTLCLLWSCARWPQMDYRRLQRTRQMEH [BCL2L14] | 16.6
SNIWLRCHWLRPTRSSFGWCRDHMHIIPGINTELFVNIAAPVF [LRRC6] | 12.4
SNIYLK [TEX12] | 0.685
SNLSPRRPEVNRHLGRGRACV [NAXD] | 1.3
SNNQQYSRSNQHHHVIMVLWHICNIKILN [ACOX2] | 5.11
SNQFLGLTAM [BTN2A1] | 0.367
SNRIEQNRIE [PCSK5] | 0.616
